The text below walks through data of patent US20240269285A1 (University of Texas, published 2024).

This assay concerns the target T1, human CD70 (human, UniProt P32970 1-193).
T1 construct: whole, on cells; also called CD70 antigen; CD27 ligand
T1 sequence (looked up): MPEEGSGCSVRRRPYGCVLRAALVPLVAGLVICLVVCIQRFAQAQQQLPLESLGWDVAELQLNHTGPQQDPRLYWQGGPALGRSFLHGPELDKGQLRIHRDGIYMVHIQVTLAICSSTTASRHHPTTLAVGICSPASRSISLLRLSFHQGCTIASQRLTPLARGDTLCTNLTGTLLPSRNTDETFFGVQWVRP
The assay is described as follows: flow cytometry on CBNK cells, Raji WT cells and Raji CD70 KO cells. How it is done:
Flow cytometry assay was conducted to detect the binding of various ml, m5, m6, m7, m14, m15, m16, m19, and m22 clones CD70 antibody clones to CD70 antigen expressed in various cells.
A general note: In flow cytometry, cells or beads pass a laser one at a time.

B1: m14 monoclonal anti-human CD70 antibody clone (antibody, V domains shown)
VH: EVQLQQSGAELVKPGASVKLSCTASGFNIKDSYMHWVKQRPEQGLEWIGRIDPANANPKYDPKFQGKATITTDTSSNTAYLQLSSLTSEDTAVYYCARDYGGYFDVWGAGTTVTVSS
VL: DIQMTQSSSYLSVSLGGRVTITCKASDHINNWLAWYQQKPGNAPRLLISGATSLETGVPSRFSGSGSGKDYTLSITSLQTEDVATYYCQQYWSTPWTFGGGTKLEIK
notes: Purified monoclonal antibody; Detected with a goat anti-mouse IgG-HRP secondary antibody; also called m14-CD70
Consider B1, for which the binding result is “binds”.

B2: m7 monoclonal anti-human CD70 antibody clone (antibody, V domains shown)
VH: QVQLKQSGPGLVQPSQSLSITCTVSGFSLTSYGVHWVRQSPGKGLEWLGVIWSGGSTDYNAAFISRLSISKDNSKSQVFFKMNSLQANDTAIYYCATYYRYDGWFAYWGQGTLVTVSA
VL: DIVLTQSPASLAVSLGQRATISCRASKSVSTSGYSYMHWYQQKPGQPPKLLIYLASNLESGVPARFSGSGSGTDFTLNIHPVEEEDAATYSCQHSRELPWTFGGGTKLEIK
notes: Purified monoclonal antibody; Detected with a goat anti-mouse IgG-HRP secondary antibody; also called m7-CD70
Consider B2, for which the binding result is on record as “binds”.
